Data reported in patent US20240117018A1.

Assays:
Assay in all cases: cell-based or functional assay
[1] = molecular target: Env of HIV-1 pseudovirus Ce0682_E4 (HIV-1)
[2] = molecular target: Env of HIV-1 pseudovirus TRJO4551.58 (HIV-1)
[3] = molecular target: Env of HIV-1 pseudovirus Ce2060_G9 (HIV-1)
[4] = molecular target: Env of HIV-1 pseudovirus PVO.4 (HIV-1)
[5] = molecular target: Env of HIV-1 pseudovirus Q769.d22 (HIV-1)
[6] = molecular target: Env of HIV-1 pseudovirus Ce2010_F5 (HIV-1)
[7] = molecular target: Env of HIV-1 pseudovirus CAAN5342.A2 (HIV-1)
[8] = molecular target: Env of HIV-1 pseudovirus 263-8 (HIV-1)
[9] = molecular target: Env of HIV-1 pseudovirus MS208.A1 (HIV-1)
[10] = molecular target: Env of HIV-1 pseudovirus HIV-0013095-2.11 (HIV-1)
[11] = molecular target: Env of HIV-1 pseudovirus 6535.3 (HIV-1)
[12] = molecular target: Env of HIV-1 pseudovirus 9004SS_A3_4 (HIV-1)
[13] = molecular target: Env of HIV-1 pseudovirus 191084 B7-19 (HIV-1)
[14] = molecular target: Env of HIV-1 pseudovirus Du156.12 (HIV-1)
[15] = molecular target: Env of HIV-1 pseudovirus 1012_11_TC21_3257 (HIV-1)
[16] = molecular target: Env of HIV-1 pseudovirus T257-31 (HIV-1)
[17] = molecular target: HIV-1 Env pseudovirus X2131_C1_B5 (HIV-1)
[18] = molecular target: HIV-1 Env pseudovirus R3265.c06 (HIV-1)
[19] = molecular target: HIV-1 Env pseudovirus R1166.c01 (HIV-1)
[20] = molecular target: HIV-1 Env pseudovirus BJOX009000.02.4 (HIV-1)
[21] = molecular target: HIV-1 Env pseudovirus 6545.v4.c1 (HIV-1)
[22] = molecular target: HIV-1 Env pseudovirus BJOX028000.10.3 (HIV-1)
[23] = molecular target: HIV-1 Env pseudovirus T255-34 (HIV-1)
[24] = molecular target: HIV-1 Env pseudovirus X1193_c1 (HIV-1)
[25] = molecular target: HIV-1 Env pseudovirus 6041.v3.c23 (HIV-1)
[26] = molecular target: HIV-1 Env pseudovirus CNE5 (HIV-1)
[27] = molecular target: HIV-1 Env pseudovirus HIV-16845-2.22 (HIV-1)
[28] = molecular target: HIV-1 Env pseudovirus 6244_13_B5_4576 (HIV-1)
[29] = molecular target: HIV-1 Env pseudovirus Q842.d12 (HIV-1)
[30] = molecular target: HIV-1 Env pseudovirus HIV-0013095-2.11 (HIV-1)
[31] = molecular target: HIV-1 Env pseudovirus CAP45.2.00.G3 (HIV-1)
[32] = molecular target: HIV-1 Env pseudovirus Ce0393_C3 (HIV-1)
[33] = molecular target: HIV-1 Env pseudovirus ZM109F.PB4 (HIV-1)
[34] = molecular target: HIV-1 Env pseudovirus Ce0682_E4 (HIV-1)
[35] = molecular target: HIV-1 Env pseudovirus 1012_11_TC21_3257 (HIV-1)
[36] = molecular target: HIV-1 Env pseudovirus 6535.3 (HIV-1)
[37] = molecular target: HIV-1 Env pseudovirus 7030102001E5(Rev-) (HIV-1)
[38] = molecular target: HIV-1 Env pseudovirus Ce1176_A3 (HIV-1)

## 10-1074 (antibody)
[1]
  IC50: > 50 µg/mL
  IC80: > 50 µg/mL
[2]
  IC50: 0.17 µg/mL
  IC80: 0.634 µg/mL
[3]
  IC50: > 50 µg/mL
  IC80: > 50 µg/mL
[4]
  IC50: 0.074 µg/mL
  IC80: 0.36 µg/mL
[5]
  IC50: > 50 µg/mL
  IC80: > 50 µg/mL
[6]
  IC50: > 50 µg/mL
  IC80: > 50 µg/mL
[7]
  IC50: 0.007 µg/mL
  IC80: 0.036 µg/mL
[8]
  IC50: 0.666 µg/mL
  IC80: 6.53 µg/mL
[9]
  IC50: > 50 µg/mL
  IC80: > 50 µg/mL
[10]
  IC50: > 50 µg/mL
  IC80: > 50 µg/mL
[11]
  IC50: 0.014 µg/mL
  IC80: 0.026 µg/mL
[12]
  IC50: 0.011 µg/mL
  IC80: 0.03 µg/mL
[13]
  IC50: 0.032 µg/mL
  IC80: 0.128 µg/mL
[14]
  IC50: 0.015 µg/mL
  IC80: 0.076 µg/mL
[15]
  IC50: 0.008 µg/mL
  IC80: 0.059 µg/mL
[16]
  IC50: > 50 µg/mL
  IC80: > 50 µg/mL

## 8ANC195 (antibody)
[17]
  IC50 (Titer in TZM.bl cells): 3.47 µg/mL
  IC80 (Titer in TZM.bl cells): > 50 µg/mL
[18]
  IC50 (Titer in TZM.bl cells): 50 µg/mL
  IC80 (Titer in TZM.bl cells): > 50 µg/mL
[19]
  IC50 (Titer in TZM.bl cells): 4.83 µg/mL
  IC80 (Titer in TZM.bl cells): 4.83 µg/mL
[20]
  IC50 (Titer in TZM.bl cells): 0.64 µg/mL
  IC80 (Titer in TZM.bl cells): 3.09 µg/mL
[21]
  IC50 (Titer in TZM.bl cells): 26.9 µg/mL
  IC80 (Titer in TZM.bl cells): > 50 µg/mL
[22]
  IC50 (Titer in TZM.bl cells): 0.45 µg/mL
  IC80 (Titer in TZM.bl cells): 2.83 µg/mL
[23]
  IC50 (Titer in TZM.bl cells): 0.54 µg/mL
  IC80 (Titer in TZM.bl cells): 8.09 µg/mL
[24]
  IC50 (Titer in TZM.bl cells): 0.27 µg/mL
  IC80 (Titer in TZM.bl cells): 1.66 µg/mL
[25]
  IC50 (Titer in TZM.bl cells): > 50 µg/mL
  IC80 (Titer in TZM.bl cells): > 50 µg/mL
[26]
  IC50 (Titer in TZM.bl cells): 2.12 µg/mL
  IC80 (Titer in TZM.bl cells): 9.67 µg/mL

## VRC07 (antibody)
[17]
  IC50 (Titer in TZM.bl cells): 0.219 µg/mL
  IC80 (Titer in TZM.bl cells): 1.03 µg/mL
[19]
  IC50 (Titer in TZM.bl cells): 0.81 µg/mL
  IC80 (Titer in TZM.bl cells): 3.17 µg/mL
[20]
  IC50 (Titer in TZM.bl cells): 0.806 µg/mL
  IC80 (Titer in TZM.bl cells): 2.9 µg/mL
[21]
  IC50 (Titer in TZM.bl cells): > 50 µg/mL
  IC80 (Titer in TZM.bl cells): > 50 µg/mL
[22]
  IC50 (Titer in TZM.bl cells): 0.011 µg/mL
  IC80 (Titer in TZM.bl cells): 0.069 µg/mL
[23]
  IC50 (Titer in TZM.bl cells): 0.227 µg/mL
  IC80 (Titer in TZM.bl cells): 0.987 µg/mL
[24]
  IC50 (Titer in TZM.bl cells): 0.037 µg/mL
  IC80 (Titer in TZM.bl cells): 0.249 µg/mL
[25]
  IC50 (Titer in TZM.bl cells): 0.018 µg/mL
  IC80 (Titer in TZM.bl cells): 0.058 µg/mL
[26]
  IC50 (Titer in TZM.bl cells): 0.138 µg/mL
  IC80 (Titer in TZM.bl cells): 0.524 µg/mL

## VRC01 (antibody)
[27]
  IC50 (Titer in TZM.bl cells): 2.8 µg/mL
  IC80 (Titer in TZM.bl cells): 12.7 µg/mL
[17]
  IC50 (Titer in TZM.bl cells): 0.51 µg/mL
  IC80 (Titer in TZM.bl cells): 1.54 µg/mL
[18]
  IC50 (Titer in TZM.bl cells): 0.45 µg/mL
  IC80 (Titer in TZM.bl cells): 1.88 µg/mL
[19]
  IC50 (Titer in TZM.bl cells): 1.7 µg/mL
  IC80 (Titer in TZM.bl cells): 4.58 µg/mL
[28]
  IC50 (Titer in TZM.bl cells): 0.21 µg/mL
  IC80 (Titer in TZM.bl cells): 0.53 µg/mL
[29]
  IC50 (Titer in TZM.bl cells): 0.03 µg/mL
  IC80 (Titer in TZM.bl cells): 0.096 µg/mL
[30]
  IC50 (Titer in TZM.bl cells): 0.11 µg/mL
  IC80 (Titer in TZM.bl cells): 0.33 µg/mL
[31]
  IC80 (Titer in TZM.bl cells): > 50 µg/mL
[32]
  IC50 (Titer in TZM.bl cells): 0.62 µg/mL
  IC80 (Titer in TZM.bl cells): 2.37 µg/mL
[33]
  IC50 (Titer in TZM.bl cells): 0.13 µg/mL
  IC80 (Titer in TZM.bl cells): 0.75 µg/mL
[21]
  IC50 (Titer in TZM.bl cells): > 50 µg/mL
  IC80 (Titer in TZM.bl cells): > 50 µg/mL
[34]
  IC50 (Titer in TZM.bl cells): 0.08 µg/mL
  IC80 (Titer in TZM.bl cells): 0.48 µg/mL
[35]
  IC50 (Titer in TZM.bl cells): 0.12 µg/mL
  IC80 (Titer in TZM.bl cells): 0.32 µg/mL
[23]
  IC50 (Titer in TZM.bl cells): 0.7 µg/mL
  IC80 (Titer in TZM.bl cells): 2.7 µg/mL
[36]
  IC50 (Titer in TZM.bl cells): 0.54 µg/mL
  IC80 (Titer in TZM.bl cells): 2.7 µg/mL
[37]
  IC50 (Titer in TZM.bl cells): 0.54 µg/mL
  IC80 (Titer in TZM.bl cells): 2.08 µg/mL
[24]
  IC50 (Titer in TZM.bl cells): 0.11 µg/mL
  IC80 (Titer in TZM.bl cells): 0.32 µg/mL
[25]
  IC50 (Titer in TZM.bl cells): 0.02 µg/mL
  IC80 (Titer in TZM.bl cells): 0.08 µg/mL
[26]
  IC50 (Titer in TZM.bl cells): 0.37 µg/mL
  IC80 (Titer in TZM.bl cells): 1.1 µg/mL
[38]
  IC50 (Titer in TZM.bl cells): 2.25 µg/mL
  IC80 (Titer in TZM.bl cells): 8.1 µg/mL

## 3BNC117 (antibody)
[17]
  IC50 (Titer in TZM.bl cells): 0.43 µg/mL
  IC80 (Titer in TZM.bl cells): 1.96 µg/mL
[18]
  IC50 (Titer in TZM.bl cells): 0.48 µg/mL
  IC80 (Titer in TZM.bl cells): 13 µg/mL
[19]
  IC50 (Titer in TZM.bl cells): 0.17 µg/mL
  IC80 (Titer in TZM.bl cells): 0.64 µg/mL
[20]
  IC50 (Titer in TZM.bl cells): 0.4 µg/mL
  IC80 (Titer in TZM.bl cells): 1.79 µg/mL
[21]
  IC50 (Titer in TZM.bl cells): > 50 µg/mL
  IC80 (Titer in TZM.bl cells): > 50 µg/mL
[22]
  IC50 (Titer in TZM.bl cells): 0.01 µg/mL
  IC80 (Titer in TZM.bl cells): 0.05 µg/mL
[23]
  IC50 (Titer in TZM.bl cells): 0.02 µg/mL
  IC80 (Titer in TZM.bl cells): 0.14 µg/mL
[24]
  IC50 (Titer in TZM.bl cells): 0.06 µg/mL
  IC80 (Titer in TZM.bl cells): 0.25 µg/mL
[25]
  IC50 (Titer in TZM.bl cells): 0.01 µg/mL
  IC80 (Titer in TZM.bl cells): 0.07 µg/mL
[26]
  IC50 (Titer in TZM.bl cells): 0.28 µg/mL
  IC80 (Titer in TZM.bl cells): 1.28 µg/mL
